The values that follow come from patent publication US20070190024A1 (INSERM INSTITUT NATIONAL DE LA SANTE ET DE LA RECH, published 2007).

Assay [1] addresses T1, murine high affinity IL-11 receptor complex (IL-11Rα with gp130) on 7TD1 cells (Class 2 sites) (mouse, UniProt Q64385 24-432; Q00560 23-917).
T1 sequence (looked up) 1: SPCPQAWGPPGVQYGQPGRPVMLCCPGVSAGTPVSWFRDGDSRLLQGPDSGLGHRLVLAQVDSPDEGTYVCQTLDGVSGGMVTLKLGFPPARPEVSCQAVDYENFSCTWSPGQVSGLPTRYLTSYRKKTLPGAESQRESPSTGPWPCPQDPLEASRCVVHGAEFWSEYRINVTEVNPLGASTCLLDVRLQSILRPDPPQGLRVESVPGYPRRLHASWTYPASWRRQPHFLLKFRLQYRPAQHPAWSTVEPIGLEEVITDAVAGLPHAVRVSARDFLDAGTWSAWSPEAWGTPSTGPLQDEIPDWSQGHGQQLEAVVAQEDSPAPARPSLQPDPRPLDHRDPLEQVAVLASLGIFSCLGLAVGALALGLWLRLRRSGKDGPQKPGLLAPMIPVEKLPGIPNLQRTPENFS
T1 sequence (looked up) 2: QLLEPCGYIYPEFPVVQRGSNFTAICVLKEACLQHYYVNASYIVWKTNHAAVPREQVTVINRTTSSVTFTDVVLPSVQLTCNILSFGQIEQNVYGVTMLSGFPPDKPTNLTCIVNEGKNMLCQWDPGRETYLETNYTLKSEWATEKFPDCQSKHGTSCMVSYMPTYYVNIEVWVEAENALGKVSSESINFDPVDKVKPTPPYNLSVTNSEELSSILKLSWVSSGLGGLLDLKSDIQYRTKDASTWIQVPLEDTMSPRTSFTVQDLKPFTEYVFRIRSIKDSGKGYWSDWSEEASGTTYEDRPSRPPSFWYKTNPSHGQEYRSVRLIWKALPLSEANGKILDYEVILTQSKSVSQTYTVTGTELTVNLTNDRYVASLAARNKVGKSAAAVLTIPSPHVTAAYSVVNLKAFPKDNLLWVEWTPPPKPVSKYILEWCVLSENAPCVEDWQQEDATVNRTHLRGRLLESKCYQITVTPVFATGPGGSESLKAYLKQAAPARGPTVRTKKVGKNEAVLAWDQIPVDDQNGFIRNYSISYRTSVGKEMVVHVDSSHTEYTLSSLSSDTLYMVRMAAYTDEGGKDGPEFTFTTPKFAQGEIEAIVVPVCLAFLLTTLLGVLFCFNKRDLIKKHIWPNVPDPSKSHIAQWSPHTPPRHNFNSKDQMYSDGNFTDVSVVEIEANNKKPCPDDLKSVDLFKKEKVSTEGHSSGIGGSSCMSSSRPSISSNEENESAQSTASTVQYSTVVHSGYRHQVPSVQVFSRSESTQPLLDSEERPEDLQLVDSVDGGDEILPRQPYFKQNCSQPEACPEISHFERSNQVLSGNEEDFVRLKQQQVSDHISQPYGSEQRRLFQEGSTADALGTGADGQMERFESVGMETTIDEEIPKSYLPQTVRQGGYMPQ
Kind of assay: cell-based or functional assay.

Assay [2] has as its target T2, fusion protein of human IL-11R and IL-2 (IL-11R-IL-2) (human, UniProt Q14626 23-370; P60568 21-153, limits assumed).
T2 construct: Amine-coupled to a CM5 chip at about 500 RU; also called human IL-11Rα-IL-2 fusion protein; recombinant human IL-11R-IL-2
Kind of assay: SPR (BiaCore 2000), IL-11R-IL-2 amine-coupled to a CM5 chip. On the procedure: (§1) These experiments were performed with a BiaCore 2000 optical biosensor (BiaCore, Uppsala, Sweden). A fusion protein of human IL-11R and IL-2 (IL-11R-IL-2) [Blanc et al. (2000). Monoclonal antibodies against the human interleukin-11 receptor alpha-chain (IL-11Ralpha) and their use in studies of human mononuclear cells. J. Immunol. Methods 241, 43-59, the content of which is herein incorporated by reference] was coupled through primary amino groups to a carboxymethyl dextran flow cell (CM5) at a low immobilisation level (about 500 RU per flow cell) compatible with kinetic binding studies. Subsequent binding of parental FPΔIL-11 or mutein was carried out in Hepes-buffered saline (pH 7.4) at a flow rate of 10 μl/minute at room temperature.
(§2) In order to find out if mutagenesis and associated conformational change of H/V-D/A have an effect on its interaction with IL-11Rα, the association and dissociation kinetic constants (kₒₙ, koff) describing parent IL-11 and H/V-D/A mutein binding to human IL-11Rα were determined by surface plasmon resonance biosensor analysis using dextran-immobilized purified human IL-11Rα-IL-2 [Blanc et al. (2000), cited supra] fusion protein as matrix.
(In general: Surface plasmon resonance follows binding to a sensor surface in real time, without labels.)

Assay [3] has as its target T3, human IL-11 receptor (human IL-11Rα and human gp130) on B13Rα1 cells (human, UniProt Q14626 23-422; P40189 23-918).
T3 construct: whole, on cells; also called Ba/F3 cells stably transfected with human gp130 and hIL-11Rα; Ba/F3 cells co-transfected with human IL-11Rα and human gp130
T3 sequence (looked up) 1: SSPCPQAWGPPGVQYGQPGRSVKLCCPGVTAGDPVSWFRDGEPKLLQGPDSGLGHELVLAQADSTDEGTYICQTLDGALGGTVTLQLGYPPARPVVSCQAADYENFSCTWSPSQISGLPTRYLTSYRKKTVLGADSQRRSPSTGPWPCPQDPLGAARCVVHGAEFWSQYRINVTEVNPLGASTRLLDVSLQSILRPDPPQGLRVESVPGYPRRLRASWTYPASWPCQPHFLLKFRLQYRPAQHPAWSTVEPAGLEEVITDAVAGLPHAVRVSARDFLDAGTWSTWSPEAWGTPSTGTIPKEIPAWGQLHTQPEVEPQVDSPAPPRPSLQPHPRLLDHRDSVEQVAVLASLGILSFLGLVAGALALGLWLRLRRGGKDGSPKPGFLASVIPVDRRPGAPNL
T3 sequence (looked up) 2: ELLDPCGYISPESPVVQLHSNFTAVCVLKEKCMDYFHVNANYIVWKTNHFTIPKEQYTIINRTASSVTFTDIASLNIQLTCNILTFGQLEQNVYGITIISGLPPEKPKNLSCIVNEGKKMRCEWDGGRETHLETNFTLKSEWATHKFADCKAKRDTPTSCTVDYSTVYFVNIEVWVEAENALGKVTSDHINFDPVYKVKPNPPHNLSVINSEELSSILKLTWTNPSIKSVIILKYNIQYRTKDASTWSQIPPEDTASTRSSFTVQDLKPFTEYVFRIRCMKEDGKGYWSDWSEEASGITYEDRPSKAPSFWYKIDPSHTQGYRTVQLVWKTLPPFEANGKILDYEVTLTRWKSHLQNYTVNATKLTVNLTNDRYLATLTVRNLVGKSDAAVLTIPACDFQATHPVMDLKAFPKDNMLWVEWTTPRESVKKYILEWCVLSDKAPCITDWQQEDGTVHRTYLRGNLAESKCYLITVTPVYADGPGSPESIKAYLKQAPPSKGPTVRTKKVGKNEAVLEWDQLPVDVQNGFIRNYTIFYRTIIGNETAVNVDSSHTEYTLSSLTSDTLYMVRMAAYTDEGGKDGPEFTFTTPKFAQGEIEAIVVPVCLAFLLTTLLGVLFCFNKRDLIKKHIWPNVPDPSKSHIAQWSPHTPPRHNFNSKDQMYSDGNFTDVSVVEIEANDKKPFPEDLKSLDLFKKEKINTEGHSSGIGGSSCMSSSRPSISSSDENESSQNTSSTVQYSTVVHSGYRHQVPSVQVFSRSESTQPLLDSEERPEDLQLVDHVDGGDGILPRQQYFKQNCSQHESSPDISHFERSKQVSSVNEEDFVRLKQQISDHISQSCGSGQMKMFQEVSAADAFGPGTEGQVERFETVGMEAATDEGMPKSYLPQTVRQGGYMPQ
Description: Scatchard analysis, 32P-labelled ligand on B13Rα1 cells; unlabelled competitor FPΔIL-11.

For assay [4], the target named is T3, human IL-11 receptor (human IL-11Rα and …). Description: Scatchard analysis, 32P-labelled ligand on B13Rα1 cells; unlabelled competitor H/V-D/A.
In assay [5] the target is T4, murine IL-11Rα on 7TD1 cells (Class 1, low affinity sites; isolated IL-11Rα chains) (mouse, UniProt Q64385 24-432).
T4 construct: whole, on cells; also called 7TD1 Class 1 sites
T4 sequence (looked up): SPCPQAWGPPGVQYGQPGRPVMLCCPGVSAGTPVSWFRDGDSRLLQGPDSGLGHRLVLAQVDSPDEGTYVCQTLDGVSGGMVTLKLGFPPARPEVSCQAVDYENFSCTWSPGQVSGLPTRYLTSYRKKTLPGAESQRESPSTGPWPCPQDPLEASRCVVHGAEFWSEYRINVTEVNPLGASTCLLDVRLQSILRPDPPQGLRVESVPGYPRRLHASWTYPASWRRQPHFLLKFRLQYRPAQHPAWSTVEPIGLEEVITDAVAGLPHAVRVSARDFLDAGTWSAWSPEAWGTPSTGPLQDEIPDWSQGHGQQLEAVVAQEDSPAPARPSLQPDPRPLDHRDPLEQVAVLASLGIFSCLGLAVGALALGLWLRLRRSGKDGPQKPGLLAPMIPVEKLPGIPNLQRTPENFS
Description: Scatchard analysis, 32P-labelled ligand on 7TD1 cells, Class 1 sites; unlabelled competitor FPΔIL-11. The procedure: (§3) Binding of ³²P-H/V-D/A on 7TD1 cells was carried out as described for the parental ³²P-FPΔIL-11 on B13Rα1 cells by Wang et al [Wang et al. (2002), cited supra, and incorporated by reference]. 7TD1 cells ([…]) were pre-incubated in culture medium lacking growth factor for 2 h and were washed 3 times with phosphate-buffered saline, pH 7.4 (PBS). For binding studies, radiolabelled H/V-D/A was added to cells at the indicated concentration in PBS containing 0.5% bovine serum albumin. The mixture was incubated at 4° C. for the appropriate time and bound radiolabelled H/V-D/A was separated from the free radioactivity by centrifugation at 3000 g for 1 min through a 0.2 ml layer of a mixture of 40% dioctyl phthalate and 60% dibutyl phthalate (Janssen Chimica, Beerse, Belgium). After quick freezing, the tip of each tube containing the cell pellet was cut-off and radioactivity was counted in a Beckman β-counter. Non-specific binding was determined by incubating cells with radiolabelled H/V-D/A in the presence of a 200-fold molar excess of unlabelled H/V-D/A. […]

For assay [6], the target named is T1, murine high affinity IL-11 receptor …. Kind of assay: Scatchard analysis, 32P-labelled ligand on 7TD1 cells, Class 2 sites; unlabelled competitor FPΔIL-11. The procedure:
as §3

For assay [7] the target is unchanged. Description: Scatchard analysis, 32P-labelled ligand on 7TD1 cells, Class 2 sites; unlabelled competitor H/V-D/A. On the procedure: as §3
For assay [8], the target named is T4, murine IL-11Rα on 7TD1 cells (Class 1, …). Kind of assay: Scatchard analysis, 32P-labelled ligand on 7TD1 cells, low affinity sites. On the procedure:
as §3

The target is the same in assay [9]. Description: Scatchard analysis, 32P-labelled ligand on 7TD1 cells, Class 1 sites; unlabelled competitor H/V-D/A. The procedure:
as §3

Assay [10] deals with T2, fusion protein of human IL-11R and IL-2 …. Kind of assay: SPR, immobilized human IL-11Rα-IL-2. The procedure: as §1, §2

B1: commercial recombinant human IL-11 (rhIL-11, R&D) (ligand)
chain: PGPPPGPPRVSPDPRAELDSTVLLTRSLLADTRQLAAQLRDKFPADGDHNLDSLPTLAMSAGALGALQLPGVLTRLRADLLSYLRHVQWLRRAGGSSLKTLEPELGTLQARLDRLLRRLQLLMSRLALPQPPPDPPAPPLAPPSSAWGGIRAAHAILGGLHLTLDWAVRGLLLLKTRL
Turning to B1, the “concentration required to induce half-maximal proliferation (EC50) of 7TD1 cells” value (shortened to “concentration required”) in assay [1] came to 15 ng/mL.

B2: FPΔIL-11 (parental, non-mutated recombinant human IL-11 with Flag tag and phosphorylation site, deleted of the first 31 N-terminal amino acids) (ligand)
chain: MDYKDDDDKEGRRASVASPDPRAELDSTVLLTRSLLADTRQLAAQLRDKFPADGDHNLDSLPTLAMSAGALGALQLPGVLTRLRADLLSYLRHVQWLRRAGGSSLKTLEPELGTLQARLDRLLRRLQLLMSRLALPQPPPDPPAPPLAPPSSAWGGIRAAHAILGGLHLTLDWAVRGLLLLKTRL
notes: Produced in E. coli BL21(DE3); monomer by gel filtration; in SPR it was unlabelled; also called parental FPΔIL-11; parent IL-11
With B2, the Kd in [2] worked out at 165 nM; in assay [3], 0.44 nM; in [4], 0.4 nM; in assay [5] it was 7.2 nM; in assay [6], 0.65 nM. Moreover, the off-rate (koff) in assay [2] worked out at 0.000975 s⁻¹. The same molecule returned a kon in assay [2] of 5900 M⁻¹ s⁻¹. In addition, the “concentration required” value in [1] was found to be 15 ng/mL.

B3: H/V-D/A mutein (FPΔIL-11 with H182V and D186A) (ligand)
chain: MDYKDDDDKEGRRASVASPDPRAELDSTVLLTRSLLADTRQLAAQLRDKFPADGDHNLDSLPTLAMSAGALGALQLPGVLTRLRADLLSYLRHVQWLRRAGGSSLKTLEPELGTLQARLDRLLRRLQLLMSRLALPQPPPDPPAPPLAPPSSAWGGIRAAHAILGGLVLTLAWAVRGLLLLKTRL
notes: in SPR it was unlabelled; also called H182V+D186A; mutant FPΔIL-11
Take B3: in [7], binding was characterised by a dissociation constant (Kd) of 0.6 nM. Further, the “fold higher affinity than FPΔIL-11” value in assay [8] was ~3 fold. This molecule came in with a Kd in assay [9] of 2.7 nM. This molecule also showed a Kd in assay [3] of 0.72 nM. Further, binding in [4] was put at a Kd of 0.71 nM. Besides, in [10], the “fold higher koff than parental FPΔIL-11” value stood at 14 fold, the “fold higher kon than parental FPΔIL-11” value stood at 35 fold and the “fold lower Kd than FPΔIL-11” value stood at 3 fold. Besides, in assay [1], the “concentration required” value turned out to be 0.03 ng/mL and the “fold lower EC50 of 7TD1 proliferation than wild-type IL-11” value amounted to 400 fold.

One may read the Kd as the equilibrium constant for the complex coming apart. The low end stands for tighter binding, the high end for weaker binding. As a reminder, the koff is a measure of how fast the partners let go of each other. The term kon denotes the rate constant with which the complex forms. A low value points to slower complex formation.
